Assays:
[1] = biological target: human zalpha11 receptor (human) (UniProt Q9HBE5); experiment: cell-based or functional assay
[2] = biological target: human zalpha11 receptor (human) (UniProt Q9HBE5); experiment: 125I-ligand competition on Raji cells, relative to no competitor
[3] = biological target: human zalpha11 receptor (human) (UniProt Q9HBE5); experiment: 125I-ligand competition on BaF3/zalpha11 cells, relative to non-specific competitor Interferon Gamma
[4] = biological target: human zalpha11 receptor (human) (UniProt Q9HBE5); experiment: 125I-ligand competition on BaF3/zalpha11 cells, relative to no competitor
[5] = biological target: human zalpha11 receptor (human) (UniProt Q9HBE5); experiment: 125I-ligand competition on Raji cells, relative to non-specific competitor Interferon Gamma

human zalpha11 receptor (human), sequence (Q9HBE5 20-538 limits assumed): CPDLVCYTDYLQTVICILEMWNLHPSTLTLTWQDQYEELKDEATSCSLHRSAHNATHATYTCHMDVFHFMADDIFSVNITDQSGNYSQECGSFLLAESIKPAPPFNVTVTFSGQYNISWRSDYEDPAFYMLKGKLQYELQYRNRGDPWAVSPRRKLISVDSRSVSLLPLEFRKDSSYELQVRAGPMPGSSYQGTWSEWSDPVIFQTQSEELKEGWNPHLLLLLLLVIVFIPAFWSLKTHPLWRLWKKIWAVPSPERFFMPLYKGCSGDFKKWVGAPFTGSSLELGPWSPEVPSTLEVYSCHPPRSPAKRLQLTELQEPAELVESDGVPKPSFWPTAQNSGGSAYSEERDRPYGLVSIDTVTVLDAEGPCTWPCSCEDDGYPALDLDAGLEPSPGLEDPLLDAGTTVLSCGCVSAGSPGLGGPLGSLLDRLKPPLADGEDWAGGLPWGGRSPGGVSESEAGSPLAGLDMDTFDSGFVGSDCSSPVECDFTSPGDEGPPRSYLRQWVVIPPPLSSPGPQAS
human zalpha11 Ligand-saporin immunotoxin conjugate, sequence (Q9HBE4 32-162): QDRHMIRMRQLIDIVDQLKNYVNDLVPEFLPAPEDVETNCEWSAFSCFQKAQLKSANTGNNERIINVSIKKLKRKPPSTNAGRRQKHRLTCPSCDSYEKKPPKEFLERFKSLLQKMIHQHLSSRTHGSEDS

fold decrease in binding of 125I-labeled ligand at 250 fold molar excess [2] [fold] | fold decrease in binding of 125I-labeled ligand at 250 fold molar excess [3] [fold] | fold decrease in binding of 125I-labeled ligand at 250 fold molar excess [4] [fold] | fold decrease in binding of 125I-labeled ligand at 250 fold molar excess [5] [fold] | Substance | growth inhibition of IM-9 cells at the maximal conjugate concentration (250 ng/ml), Alamar Blue [1] [%] | growth inhibition of RAMOS cells at the maximal conjugate concentration (250 ng/ml), Alamar Blue [1] [%]
 |  |  |  | human zalpha11 Ligand-saporin immunotoxin conjugate | 79 | 65
3.7 | 2 | 3.06 | 3 | purified CHO recombinant human zalpha11 Ligand (huzalpha11L-CHO) (from UniProt Q9HBE4 32-162) |  | 

Reference: patent publication EP1881070A2
